Measurements: publication PMC3961337, “FRET-Based System for Probing Protein-Protein Interactions between σ^R and RsrA from Streptomyces Coelicolor in Response to the Redox Environment” (PLoS ONE, 2014)

B1: rsrA-cfp-pET28a (+) protein (RCP) (natural protein, S. coelicolor M145, UniProt Q7AKG8 1-105, looked up)
chain: MSCGEPHETDCSEILDHLYEFLDKEMPDSDCVKFEHHFEECSPCLEKYGLEQAVKKLVKRCCGQDDVPGDLRAKVMGRLDLIRSGQSVPEHDVAAAPSSSAPQES
notes: anti-sigma factor RsrA of Streptomyces coelicolor, amplified from the M145 genome with primers rsrAA and rsrAB; RsrA, then E-F (EcoRI site) and G-G-S, then CFP from M-V-S-K-G to M-D-E-L-Y-K (worked out from primers cfpA and cfpB), cloned NcoI/EcoRI/HindIII in pET28a (+); source: E. coli BL21 (DE3), purified (Ni-NTA); also co-expressed with SYP in E. coli BL21 (DE3) cells, unpurified; not shown: …
B2: RCP with the histidine tag removed by thrombin (zinc function assay) (natural protein, S. coelicolor M145, UniProt Q7AKG8 1-105, looked up)
chain: B1 chain
notes: anti-sigma factor RsrA of Streptomyces coelicolor, amplified from the M145 genome with primers rsrAA and rsrAB; Same construct as m4 after thrombin; Zinc removed with EDTA (apo-RCP); Zn-RCP is the same protein with 500 uM ZnSO4 added; also called apo-RCP; Zn-RCP; not shown: CFP (after a glycine-glycine-serine linker), C-terminal, kept; His tag, N-terminal, cleaved

Assays:
Conditions in all cases: both partners purified
[1] = biological target: T1, sigR-yfp-pET28a (+) protein (SYP) (S. coelicolor M145, UniProt Q7AKG9 1-227, biotinylated for the biolayer interferometry only); assay: FRET or BRET; FRET efficiency titration: increasing SYP (or YFP) from 0.1 nM to 0.85 μM added to a determined concentration of RCP in binding buffer with 2.5 mM DTT; single-site binding curve
T1 construct: ECF sigma factor σR (SigR) of Streptomyces coelicolor, amplified from the M145 genome with primers sigRC and sigRD; the primers encode M-G-T-G-T-D-A at the start (after the NcoI site) and K-G-S-G-S before the HindIII site (worked out from the primers); σR, then K-L (HindIII site) and G-G-S, then YFP from M-V-S-K-G to M-D-E-L-Y-K (worked out from primers yfpC and yfpD), cloned NcoI/HindIII/XhoI in …
T1 sequence (Q7AKG9 whole entry): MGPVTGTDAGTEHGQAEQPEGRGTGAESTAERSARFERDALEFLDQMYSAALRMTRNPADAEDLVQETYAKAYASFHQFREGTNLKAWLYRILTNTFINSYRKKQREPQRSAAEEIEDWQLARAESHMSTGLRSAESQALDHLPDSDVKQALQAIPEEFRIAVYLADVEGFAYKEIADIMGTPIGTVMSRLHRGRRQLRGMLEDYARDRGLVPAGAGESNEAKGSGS

[2] = biological target: T2, SYP with the histidine tag removed by thrombin (zinc function assay) (S. coelicolor M145, UniProt Q7AKG9 1-227); assay: FRET or BRET; zinc function assay, Zn-sample (500 μM ZnSO4) after removal of DTT and addition of 1 mM diamide; FRET ratio emission 528 nm/478 nm
T2 construct: ECF sigma factor σR (SigR) of Streptomyces coelicolor, amplified from the M145 genome with primers sigRC and sigRD; the primers encode M-G-T-G-T-D-A at the start (after the NcoI site) and K-G-S-G-S before the HindIII site (worked out from the primers); Same construct as m3 after thrombin; not shown: YFP (after a glycine-glycine-serine linker), C-terminal, kept; His tag, N-terminal, cleaved
T2 sequence (Q7AKG9 whole entry): as above

[3] = biological target: T2, SYP with the histidine tag removed by …; assay: FRET or BRET; zinc function assay, apo-sample: His tags removed by thrombin, zinc removed with 5 mM EDTA; SYP and RCP at the same concentration, no ZnSO4; FRET ratio emission 528 nm/478 nm
[4] = biological target: T2, SYP with the histidine tag removed by …; assay: FRET or BRET; zinc function assay with ZnSO4: His tags removed by thrombin; increasing ZnSO4 added to the mixture (Fig. 4A) and 500 μM ZnSO4 for the spectra (Fig. 4B); FRET ratio emission 528 nm/478 nm

| Binder | Kd [1] [nM] | FRET ratio (emission 528 nm/478 nm), Zn-sample with diamide [2] | FRET ratio (emission 528 nm/478 nm), no ZnSO4 added [3] | FRET ratio (emission 528 nm/478 nm), with 500 μM ZnSO4 [4] |
| --- | --- | --- | --- | --- |
| B1 | 81 ± 29 |  |  |  |
| B2 |  | 2.2 | 2.3 | 2.8 |
